The text below walks through data of PMC8225418.

Series [1] addresses T1, wt Dpo4 (DNA polymerase IV) (Sulfolobus solfataricus, UniProt Q97W02 1-352).
T1 sequence: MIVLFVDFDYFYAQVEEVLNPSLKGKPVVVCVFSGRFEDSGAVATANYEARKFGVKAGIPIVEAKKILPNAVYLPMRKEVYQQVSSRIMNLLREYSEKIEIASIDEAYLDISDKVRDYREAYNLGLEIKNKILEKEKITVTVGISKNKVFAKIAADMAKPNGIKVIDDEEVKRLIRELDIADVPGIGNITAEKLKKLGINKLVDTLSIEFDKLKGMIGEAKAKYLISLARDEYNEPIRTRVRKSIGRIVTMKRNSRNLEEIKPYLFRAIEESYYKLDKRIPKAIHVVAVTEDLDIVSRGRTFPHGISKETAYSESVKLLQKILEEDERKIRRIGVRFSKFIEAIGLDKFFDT
Kind of series: stopped-flow FRET.

Series [2] deals with T1, wt Dpo4 (DNA polymerase IV). The series is described as follows: stopped-flow fluorescence anisotropy. For orientation: In fluorescence polarisation assays a small probe gives low polarisation when free and higher when bound to something large.

B1: DNAOH (21-mer/30-mer) (dsDNA)
DNA 1: CGAGCCGTCGCATCCTACCGC
DNA 2: GATGCTGCAGCGGTAGGATGCGACGGCTCG
B1: the binding result in series [1] is “binds”.

B2: Alexa488-labeled DNAOH (dsDNA)
DNA 1: CGAGCCGTCGCATCCTACCGC
DNA 2: B1 DNA 2
modifications: 5-C6-amino-2'-deoxythymidine at T13 of primer (ninth base from 3' end)
As for B2, the binding result in series [2] was “binds”.
